Assay results published in publication PMC6053526.

Legend:
Assay in all cases: EMSA
Settings in all cases: 5x buffer (3 uL in 14 uL): 20% glycerol, 5 mM MgCl2, 2.5 mM EDTA, 2.5 mM DTT, 250 mM NaCl, 50 mM Tris-HCl pH 7.5, 0.25 mg/ml poly(dI-dC); 0.5 ug protein; 10 min
[1] = biological target: GST-AtWRKY50-C (Arabidopsis thaliana) (UniProt Q8VWQ5)
[2] = biological target: T1, TGA2-His (Arabidopsis thaliana) (UniProt P43273)
T1 sequence: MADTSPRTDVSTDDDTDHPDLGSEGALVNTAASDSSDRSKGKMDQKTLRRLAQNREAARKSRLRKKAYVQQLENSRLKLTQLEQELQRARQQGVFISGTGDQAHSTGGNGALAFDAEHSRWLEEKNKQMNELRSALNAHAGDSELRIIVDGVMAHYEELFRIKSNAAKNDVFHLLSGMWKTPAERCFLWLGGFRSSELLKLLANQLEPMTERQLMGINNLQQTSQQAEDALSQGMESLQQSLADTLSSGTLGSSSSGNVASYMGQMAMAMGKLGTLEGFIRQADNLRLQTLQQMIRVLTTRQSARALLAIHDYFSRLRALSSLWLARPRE

[3] = biological target: GST-AtWRKY50-C;TGA2-His (Arabidopsis thaliana;Arabidopsis thaliana) (UniProt Q8VWQ5+P43273)
Chain of GST-AtWRKY50-C;TGA2-His (Arabidopsis thaliana;Arabidopsis thaliana) (Q8VWQ5 86-173, one chain of several): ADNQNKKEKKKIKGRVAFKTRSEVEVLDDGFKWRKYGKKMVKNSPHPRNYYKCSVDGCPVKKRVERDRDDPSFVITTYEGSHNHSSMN

Chain of GST-AtWRKY50-C (Arabidopsis thaliana) (Q8VWQ5 86-173): as the sequence (Q8VWQ5 86-173, one chain of several) above

Sequence | binding [1] | binding [2] | binding [3]
ATCGGATCCGGTGATCTATTGACTGTTTCTCTACGTCACTATTTTACTTACGTCATAGATGTGGCGGCATATA (double strand) [ABC] | binds | binds | –
CATCTATTGCGTAAGTAAAATAGTGACGTAGAGAAACAGTCAATAGATCACCGGATCCGAT (double strand) [ABCm2] | – | binds more weakly | –
CTCTACGCAACTATTTTACTTACGTCATAGATGTGGCGGCATATATTCTTCAGGACTTTTCAGATCTAGGC (double strand) [BCDm1] | – | binds | binds
TTTCTCTACGTCACTATTTTACTTACGTCATAGATGTGGCGGCATATATTCTTCAGGACTTTTCAGATCTAGGC (double strand) [BCD] | binds | binds | binds
